± gives the uncertainty stated by the source.
Test: protein stability index of a GFP-peptide fusion (yeast GPS) (PSI 1-4); higher = more stable; sorted into four equal gates, so the index is relative within each strain
Method in brief: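 Mid-log yeast cultures in leucine-free medium, carrying a pooled plasmid library, were sorted into four equal gates by their GFP/Cherry fluorescence ratio. Each plasmid expressed Cherry along with GFP fused upstream of a tiled 17-residue yeast protein peptide. Plasmids recovered from each gate were PCR-amplified and Illumina-sequenced, with reads assigned to strains by barcodes. The protein stability index was obtained by summing each gate's read frequency weighted by its gate number.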

Sequence | protein stability index (doa10∆) | protein stability index (pdr5∆) | protein stability index (san1∆) | protein stability index (ubr1∆)
GYSGYGNGITNTTTRVI [SNF5] | 3.64 ± 0.2 | 3.72 ± 0.24 | 2.76 ± 0.18 | –
KAGKITTIEEIFLHSLP [RPS2] | 2.8 ± 0.11 | 2.69 ± 0.12 | 2.52 ± 0.082 | 2.94 ± 0.066
QELEKRMPMDFKGVIVK [PRE1] | 1.77 ± 0.18 | – | 2.8 ± 0.12 | 1.81 ± 0.071
GATSKPAFSFGAKPEEK [YJL041W/NSP1] | 3.05 ± 0.098 | 3.4 ± 0.092 | 3.31 ± 0.074 | 3.11 ± 0.073
GALHFVQQSEKLRNEVE [YIL149C/MLP2] | 3.17 ± 0.14 | 3.16 ± 0.22 | – | 3.16 ± 0.12
IKFKKCDGDTVWDKFAV [SSN2] | 3 ± 0.052 | 3.03 ± 0.048 | 2.87 ± 0.046 | 2.75 ± 0.046
QEFDSELSKEEKERLES [SMC3] | 2.97 ± 0.12 | 2.96 ± 0.16 | 2.98 ± 0.058 | 3.06 ± 0.081
TKSPAYPMMHQVRNQVF [RGR1] | 1.78 ± 0.047 | 1.88 ± 0.054 | 1.8 ± 0.077 | 2.23 ± 0.047
AAVLSNLQGDLQAIQEK [ITC1] | – | – | 3.31 ± 0.16 | –
HYKVPTDTSTTATAATN [MED6] | 2.28 ± 0.054 | 2.62 ± 0.053 | 2.29 ± 0.067 | 2.61 ± 0.044
VRDKLDEYQAAVEQRKK [DPB4] | 3.42 ± 0.097 | 3.37 ± 0.066 | 3.31 ± 0.055 | 3.33 ± 0.073
VFIFPTSNWEIYKPLLF [SRB8] | 2.15 ± 0.06 | 2.6 ± 0.083 | 2.84 ± 0.062 | 2.74 ± 0.056
SHAIRLGNGVACDPSEI [RGR1] | 1.52 ± 0.088 | 1.64 ± 0.089 | 2.91 ± 0.17 | 2.16 ± 0.15
STDNEAITISNSIDINY [SMC1] | 2.62 ± 0.053 | 2.93 ± 0.057 | 2.67 ± 0.045 | 2.88 ± 0.039
IIPIVDYAQLDHLVSSI [ARP9] | 2.13 ± 0.05 | 2.48 ± 0.051 | 2.34 ± 0.053 | 2.38 ± 0.039
PWDTSLEVGRRFSPDED [MCD1] | 3.25 ± 0.14 | 3.44 ± 0.19 | 3.28 ± 0.15 | 3.41 ± 0.17
EKFPNDVKLLNPIDIKR [RPP1] | 2.91 ± 0.062 | 2.97 ± 0.041 | 3.14 ± 0.038 | 3.01 ± 0.039
FYERLDKSTTQLRKEIQ [MED11] | 2.61 ± 0.063 | 2.82 ± 0.081 | 2.47 ± 0.064 | 2.9 ± 0.072
HMMKRWGYQMVWAPTQK [POP1] | 2.15 ± 0.054 | 2.4 ± 0.051 | 2.59 ± 0.059 | 2.56 ± 0.054
FHIDHTKPSDLTIKDIV [RPO21] | 2.71 ± 0.048 | 2.66 ± 0.06 | 2.56 ± 0.059 | 2.8 ± 0.035
ISFVLGVRSNHLRSNIL [SMC1] | 2.09 ± 0.061 | 2.16 ± 0.088 | 2.08 ± 0.097 | 2.47 ± 0.064
LSRYVKWPEYVRLQRQK [RPL8B] | – | 2.71 ± 0.24 | – | –
LTKKEKKEANLFPEQQN [RPL6A] | 3.08 ± 0.072 | 3.2 ± 0.072 | 3.25 ± 0.06 | 3.16 ± 0.048
ERSAGNIVQVFKKAAPS [RPB2] | 2.6 ± 0.12 | 2.53 ± 0.14 | 2.52 ± 0.11 | 2.91 ± 0.27
DDPVPTPPAIEHKPVSP [SSN2] | 2.63 ± 0.14 | 2.59 ± 0.26 | 2.72 ± 0.29 | 2.49 ± 0.16
EDLVDRIENPEKYAAAA [RPP0] | 3.05 ± 0.078 | 3.28 ± 0.099 | 2.93 ± 0.054 | 3.09 ± 0.057

Sequence | protein stability index (doa10∆) | protein stability index (pdr5∆) | protein stability index (san1∆) | protein stability index (ubr1∆)
WAVISAFFREKGLVSQQ [RPB2] | 3.38 ± 0.14 | 3.46 ± 0.1 | 3.29 ± 0.078 | 3.14 ± 0.078
NPSNTPDKDYLLSIPIS [FAS1] | 2.89 ± 0.078 | 3.1 ± 0.079 | 2.88 ± 0.054 | 2.82 ± 0.066
HVSHEAMREVNDEKRVK [YIL149C/MLP2] | 2.74 ± 0.097 | 2.89 ± 0.15 | – | 3.03 ± 0.12
GIDINTKIFNSVAEVFQ [YCG1] | 2.08 ± 0.1 | 2.93 ± 0.12 | 2.39 ± 0.12 | 2.86 ± 0.067
RDLILKKGEYARFKSKD [SMC3] | 2.81 ± 0.17 | 2.72 ± 0.18 | 2.65 ± 0.21 | 2.77 ± 0.076
PSNESCSPWSLQISDIP [SRB5] | 2.87 ± 0.058 | 2.78 ± 0.047 | 2.97 ± 0.039 | 2.91 ± 0.032
GISSAYIKSATLYSVKS [SNU114] | 1.39 ± 0.12 | 1.43 ± 0.11 | 1.67 ± 0.26 | 1.75 ± 0.17
PKEEEPILAPSVKDYRP [RPS3] | 2.8 ± 0.059 | 2.86 ± 0.079 | 3.04 ± 0.052 | 2.65 ± 0.054
NKRLDVIDGKLPFMQNA [YDL088C/ASM4] | 2.84 ± 0.053 | 2.79 ± 0.053 | 2.44 ± 0.052 | 2.19 ± 0.044
PFDMGGYFIINGSEKVL [RPB2] | 2.83 ± 0.14 | 2.28 ± 0.14 | 2.56 ± 0.27 | 2.33 ± 0.16
PTAKDVEVIKQLSLDAS [GAL11] | 3.08 ± 0.13 | 2 ± 0.07 | 1.82 ± 0.1 | 2.28 ± 0.073
APDSEYLCFILSTRAGG [SNF2] | 1.97 ± 0.055 | 1.97 ± 0.058 | 2.01 ± 0.063 | 1.93 ± 0.041
SQEMVPRYFSEAINGFK [SIR3] | 2.99 ± 0.079 | 3.01 ± 0.088 | 3.14 ± 0.058 | 2.94 ± 0.054
SNLSQNVVPYHRNTSDY [SWI1] | 2.65 ± 0.083 | 3.07 ± 0.086 | 2.82 ± 0.1 | 2.92 ± 0.058
NNGVSNLWKNIFLSKEN [COR1] | 2.98 ± 0.082 | 2.9 ± 0.059 | 2.67 ± 0.089 | 2.4 ± 0.058
LFGNNAGNTTTGGGLFG [YGL172W/NUP49] | 2.95 ± 0.18 | 3.37 ± 0.25 | – | 3.36 ± 0.17
ERAARVVKGRVEKTLLS [RPO31] | 3.37 ± 0.19 | 3.27 ± 0.18 | – | 3.5 ± 0.1
PAFSFGTKSNEKKDSGS [YJL041W/NSP1] | 3.17 ± 0.075 | 3.46 ± 0.075 | 3.44 ± 0.044 | 3.25 ± 0.065
FQELDSKKQRNNGSKDH [RPN9] | 3.09 ± 0.17 | 2.64 ± 0.19 | 2.67 ± 0.15 | 2.37 ± 0.16
NSLTVDGNNANYIYAGY [RPN14] | 2.87 ± 0.088 | 2.55 ± 0.078 | 2.42 ± 0.092 | 2.85 ± 0.049
INLTKVTQKDICILGIL [CSI1] | 2.78 ± 0.07 | 2.83 ± 0.07 | 3.03 ± 0.059 | 3.11 ± 0.15
DYPDDSGWTPFHIACSV [NAS6] | 3.37 ± 0.11 | 2.28 ± 0.099 | 2.48 ± 0.12 | 2.27 ± 0.29
GSVELSTGDYTFTIQLL [YML103C/NUP188] | 2.05 ± 0.084 | 2.41 ± 0.072 | 1.89 ± 0.11 | 2.17 ± 0.051
NDFFIIYYTPAFFHLFA [YJL039C/NUP192] | 1.41 ± 0.058 | 1.57 ± 0.043 | 1.62 ± 0.073 | 1.58 ± 0.042
RKEGPTIYYVDSDGTRL [PRE2] | 2.24 ± 0.048 | 1.9 ± 0.034 | 2.03 ± 0.074 | 2.32 ± 0.034
IAEIKKTPLLKQYLSAS [RPL6A] | 2.65 ± 0.063 | 2.47 ± 0.065 | 2.31 ± 0.065 | 2.25 ± 0.047
